Here are results for ten molecules from PMC5353646, “Allosteric modulation of peroxisomal membrane protein recognition by farnesylation of the peroxisomal import receptor PEX19” (Nature Communications, 2017).

Substitutions are numbered along the chain they refer to. Numbers in names are those of the source. Entries after “also recorded” stand apart in the source; their conditions may differ.

One data set concerns the target T1, farnesylated PEX19 CTD (Homo sapiens, UniProt P40855).
T1 construct: we studied the human PEX19 CTD (residues 161–299) that includes the native C-terminus; hexahistidine (TEV-cleavable) (cleaved yes); made in house; host or cells: Escherichia coli BL21 (DE3); farnesylated in vitro with recombinant S. cerevisiae farnesyl transferase
T1 sequence (P40855 161-299): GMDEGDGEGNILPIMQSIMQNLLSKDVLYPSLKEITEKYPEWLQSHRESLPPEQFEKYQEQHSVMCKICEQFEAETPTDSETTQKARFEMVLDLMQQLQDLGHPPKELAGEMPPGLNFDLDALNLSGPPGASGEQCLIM
The experiment in a line: NMR titration of farnesylated PEX19 CTD with PMP peptides. Format: binding. Conditions: 1H,15N HSQC, 298 K, ALDP at 5 and 10 molar ratio with 100 μM PEX19 CTD, PEX13 at 1:1.5 and 1:0.5 with 50 μM.

Data set [1] concerns PEX19-deficient human fibroblasts (ΔPEX19 T). The experiment in a line: Functional complementation of PEX19-deficient fibroblasts (peroxisomal protein import). The conditions noted are these: full-length PEX19 variants, 72 h after transfection. The data set is classed as cell-based. From the text:
A bicistronic expression plasmid coding for eGFP-PTS1 and non-tagged PEX14 (pMF1220)[43] was kindly provided by Marc Fransen (Leuven, Belgium). pIRES2-HsPEX19-eGFP-PTS1 was constructed by replacing the open reading frame of PEX14 (BglII/SalI) with a DNA-cassette encoding the full-length open reading frame of human PEX19 as derived from BamHI/SalI digestion of pAH05 (ref. [44]). Single point mutations were introduced into the PEX19 sequence by Quickchange XL Site-directed Mutagenesis kit (Stratagene) using primer pairs (Supplementary Table 1). The bicistronic expression vectors coding for PEX19 variants and eGFP-PTS1 were transfected into the human cell-line ΔPEX19 T which was derived from PEX19-deficient Zellweger patient fibroblasts. ΔPEX19 T cells, characterized by a defect in peroxisome biogenesis were routinely authenticated by functional complementation assays as described below and checked for mycoplasma contamination using Venor GeM Advance Mycoplasm Detection Kit (Minerva Biolabs). The efficiency of transfection according to the Amaxa Cell Line Nucleofector Kit R protocol (Lonza Cologne AG) was always around 90%. After 72 h of transfection, cells were subjected to fluorescence and immunofluorescence microscopy using polyclonal antiserum against human PEX14 (ref. [45]) (1:400 diluted) or monoclonal antibodies against human PEX19 (BD Biosciences, MA5-17266 Thermo Scientific; 1:400 diluted). Statistical analysis was carried out from three independent transfections of each pIRES-PEX19-eGFP-PTS1 expression plasmid. Based on the appearance of eGFP-PTS1 fluorescence pattern, about 100 cells of each experiment were visually categorized into three classes, (i) full complementation of peroxisomal import as visualized by punctuate staining pattern, (ii) partial complementation as indicated by diffuse cytosolic staining with few dots, (iii) no complementation resulting in only cytosolic staining. All micrographs were recorded on a Zeiss Axioplan 2 microscope with a Zeiss Plan-Apochromat × 63/1.4 oil objective and an Axiocam MR digital camera, and were processed with AxioVision 4.6 software (Zeiss, Jena, Germany). The steady-state level of PEX19 expression was assessed by immunoblot analysis, using monoclonal mouse antibodies against HsPEX19 (BD Biosciences, MA5-17266; 1:1,000 diluted) (Supplementary Fig. 9).

The nature of data set [2]: 15N NMR relaxation, tumbling correlation time. The data set is classed as physicochemical. The conditions noted are these: for tumbling correlation time τc: 15N R2/R1 ratio, 750 MHz, 298 K, PEX19 CTD residues 161–299; for oligomeric state in solution: from τc, 15N NMR relaxation. An excerpt: NMR spectra were acquired at 298 K on a Bruker Avance III 600-MHz spectrometer with a TCI cryo-probe head, an Avance III 750-MHz spectrometer with a TXI probe head, or an Avance 900 instrument with a TXI cryo-probe head. Spectra were processed using NMRPipe[31] and analysed with Sparky[32]. Backbone assignment was done semi-automatically with MARS[33]. Backbone and side chain assignments were obtained from HNCA, HNCACB, CBCA(CO)NH, H(C)CH-TOCSY and (H)CCH-TOCSY spectra. ^13C- and ^15N- edited NOESY spectra with a mixing time of 70 ms were recorded to derive distance restraints. For NOEs between PEX19 and the farnesyl group, isotope-edited and filtered 3D NOESY spectra (70 and 100 ms mixing times) were acquired using specific isotope-labelled samples. ^15N R1, R2 relaxation rates and {^1H}-^15N heteronuclear NOEs were recorded at an Avance III 750 MHz spectrometer. Local correlation times were derived from the ^15N R2/R1 ratio[35]. For determination of solvent paramagnetic relaxation enhancement rates, gadolinium diethylene-triamine-penta-acetic-acid bismethylamide (Gd(DTPA-BMA)) was titrated to the protein samples[36][37][38]. Saturation recovery ^1H,^15N HSQC experiments with recovery times from 0.01 to 3 s were recorded at concentrations of 0, 1, 2, 3, 5, 7 and 10 mM Gd(DTPA-BMA). Peak intensities were fitted to an exponential recovery function according to equation I(τ)=I0−Aexp(−R1τ), where τ is the recovery delay, I(τ) is the peak intensity measured for the recovery delay τ, I0 is the maximum peak intensity, R1 is the longitudinal proton relaxation rate and A is the signal amplitude. To obtain the sPRE value, the proton R1 rates were collected for all measured concentrations of Gd(DTPA-BMA) cpara and a linear regression for the equation R1 (cpara)=msPRE cpara+ [drawing 1] was performed, where R1 (cpara) is the proton R1 measured at the concentration cpara of the paramagnetic compound, the slope msPRE corresponds to the sPRE and [drawing 2] is the fitted proton R1 in the absence of the paramagnetic compound[36]. For NMR titrations an ALDP peptide (sequence: AAKAGMNRVFLQRLL, residues 62–76 of human ALDP) was dissolved to a concentration of 5 mM in NMR buffer and added to ^15N-labelled PEX19 CTD with and without farnesylation in the same buffer up to a protein-peptide molar ratio of 1:10.

The nature of data set [3]: Hydrophobic interaction chromatography. The data set is classed as physicochemical. The conditions noted are these: Butyl Sepharose FF, linear decreasing (NH4)2SO4 650–0 mM, 20 ml, 280 nm; for elution volume after start of the gradient: 20 mM potassium phosphate, pH 6.5, 50 mM NaCl, 500 μg protein; for ΔV, difference in elution volume between farnesylated and non-farnesylated protein: pH 6.5. The method, then: Purified PEX19 CTD and variants were adjusted to a buffer containing 650 mM (NH4)2SO4 and 500 μg protein was subjected to equilibrated Butyl Sepharose FF column (20 mM potassium phosphate, pH 6.5, 50 mM NaCl and 650 mM (NH4)2SO4). After washing, bound protein was eluted with linear decreasing (NH4)2SO4 concentrations (650–0 mM (NH4)2SO4, 20 ml). Eluted proteins were detected using 280 nm absorption. The binding strength is indicated by the elution volume and correlates with protein hydrophobicity.

On to “HFTKVFSAFALVRTIR [PEX13 peptide, peptide derived from the PMP PEX13]”, for which the “NMR chemical shift perturbations / line broadening of farnesylated PEX19 CTD” value on farnesylated PEX19 CTD was “severe line broadening”; at farnesylated PEX19 CTD (listed as PEX13), “even stronger NMR chemical shift perturbation changes to helix α1, and significant line broadening in the lid region”.

B1: PEX19 I195K: full-length PEX19 variant I195K (protein, UniProt P40855 1-299, looked up, variant I195K)
chain: MAAAEEGCSVGAEADRELEELLESALDDFDKAKPSPAPPSTTTAPDASGPQKRSPGDTAKDALFASQEKFFQELFDSELASQATAEFEKAMKELAEEEPHLVEQFQKLSEAAGRVGSDMTSQQEFTSCLKETLSGLAKNATDLQNSSMSEEELTKAMEGLGMDEGDGEGNILPIMQSIMQNLLSKDVLYPSLKEKTEKYPEWLQSHRESLPPEQFEKYQEQHSVMCKICEQFEAETPTDSETTQKARFEMVLDLMQQLQDLGHPPKELAGEMPPGLNFDLDALNLSGPPGASGEQCLIM
modifications: full-length
With B1, the “functional complementation (in words)” value in data set [1] is on record as “impaired although less strongly”. Further, the “cells showing restored peroxisomal protein transport (functional complementation)” value in data set [1] (at least 100 cells in three independent transfections, series of Fig. 3c) was found to be 23%.

B2: PEX19 P273F/P274F: full-length PEX19 with two lid prolines replaced by phenylalanine (protein, UniProt P40855 1-299, looked up, variant P273F P274F)
chain: B1 chain with K195I, P273F, P274F
modifications: full-length
notes: full-length PEX19 with two lid prolines replaced by phenylalanine
Take B2: the “cells displaying import-competent peroxisomes (complementation rate)” value in data set [1] (100 cells each of three independent transfections, series of Fig. 5d) is 20%.

B3: PEX19 CTD: human PEX19 C-terminal domain (residues 161–299) (protein)
chain: T1 sequence (P40855 161-299)
modifications: left off: His6, end not stated, cleaved
For B3, in data set [2], the “tumbling correlation time τc” value is recorded as 11.4 ns and the “oligomeric state in solution” value is “monomeric in solution”. In addition, in data set [3], the “elution volume after start of the gradient” value (“elution volume after start” below) turned out to be 9.66 mL; the “ΔV, difference in elution volume between farnesylated and non-farnesylated protein” value was found to be 5.08 mL.

B4: M255R farn: farnesylated PEX19 CTD variant M255R (protein, UniProt P40855 161-299, looked up, variant M255R)
chain: T1 sequence (P40855 161-299) with M95R
modifications: C-terminal domain farnesylated
Regarding B4, the “elution volume after start” value in data set [3] came to 17.9 mL.

B5: M179R: PEX19 CTD variant M179R (helix α1) (protein)
chain: T1 sequence (P40855 161-299) with M19R
modifications: left off: His6, end not stated, cleaved
With B5, in data set [3], the “elution volume after start” value is 4.60 mL. Further, in data set [1], the “functional complementation (in words)” value is listed as “not capable of rescuing the ΔPEX19 phenotype; also recorded: cannot restore peroxisomal biogenesis”.

B6: I195K farn: farnesylated PEX19 CTD variant I195K (protein, UniProt P40855 161-299, looked up, variant I195K)
chain: T1 sequence (P40855 161-299) with I35K
modifications: C-terminal domain farnesylated
For the molecule B6, in data set [3], the “elution volume after start” value worked out at 16.41 mL.

B7: I195K: PEX19 CTD variant I195K (helix α2) (protein)
chain: T1 sequence (P40855 161-299) with I35K
modifications: farnesyl group on Cys296 (CaaX box); left off: His6, end not stated, cleaved
For B7, in data set [3], the “elution volume after start” value amounted to 8.40 mL; the “ΔV, difference in elution volume between farnesylated and non-farnesylated protein” value turned out to be 8.01 mL.

B8: M179R farn: farnesylated PEX19 CTD variant M179R (protein, UniProt P40855 161-299, looked up, variant M179R)
chain: T1 sequence (P40855 161-299) with M19R
modifications: C-terminal domain farnesylated
In the case of B8, the “elution volume after start” value in data set [3] stood at 11.26 mL.

B9: PEX19 CTD farnesylated: human PEX19 CTD (residues 161–299) farnesylated in vitro (protein)
chain: T1 sequence (P40855 161-299)
modifications: farnesyl group on Cys296 (CaaX box); left off: His6, end not stated, cleaved
notes: human PEX19 CTD (residues 161–299) farnesylated in vitro
Consider B9, for which, in data set [2], the “tumbling correlation time τc” value turned out to be 10.5 ns and the “oligomeric state in solution” value was “monomeric in solution”. In addition, in data set [3], the “elution volume after start” value is 14.74 mL.
